Experiments:
[1] = target: T1, human CD40-Fc protein (amino acid residue 21-193 of SEQ ID NO: 67 linked to N-terminus of amino acid residue … (human, biotin-labeled in the capture ELISA and in the benchmark blocking ELISA; unlabeled when coated in the ligand blocking ELISA); assay: capture ELISA; antibody captured, biotin-labeled human CD40-Fc in solution
T1 construct: also called biotin-labeled human CD40-Fc; human CD40-Fc-biotin
Description: (§1) Plates were washed 4 times with wash buffer (PBS+0.05% Tween-20, PBST) and then blocked with 200 μl/well blocking buffer (5% w/v non-fatty milk in PBST) for 2 hours at 37° C. […] After a final wash, plates were incubated with 100 μl/well ELISA substrate TMB (Innoreagents, Cat # TMB-S-002). The reaction was stopped in 15 minutes at 25° C. with 50 μl/well 1M H₂SO₄, and the absorbance was read at 450 nm and plotted against antibody concentration. Data were analyzed using Graphpad Prism software and EC₅₀ values were reported.

[2] = target: T1, human CD40-Fc protein (amino acid …); assay: capture ELISA, biotin human CD40-Fc; mAb at 2000 ng/mL
Description: as §1

[3] = target: T1, human CD40-Fc protein (amino acid …); assay: capture ELISA, biotin human CD40-Fc; mAb at 16 ng/mL
Description: as §1

[4] = target: T2, full length human CD40 (uniprot # P25942-1) on the membrane of 293T-CD40 cells (human, UniProt P25942 21-277); assay: cell-based or functional assay
[5] = target: T1, human CD40-Fc protein (amino acid …); assay: competitive ELISA; biotin human CD40-Fc in solution, competitor coated BM2
Description: (§2) The ability of the mouse anti-CD40 antibodies of the present invention to block the binding of the Benchmark to human CD40 was measured using a competitive ELISA assay. […] The next day, plates were washed with wash buffer, and blocked with 5% w/v non-fatty milk in PBST for 2 hours at 37° C. Plates were then washed again using wash buffer. […] After incubation at 37° C. for 40 minutes, plates were washed 4 times using wash buffer. Then streptavidin conjugated HRP was added and incubated for 40 minutes at 37° C. to detect biotin-labeled human CD40-Fc bound to plates. Plates were washed again using wash buffer. Finally, TMB was added and the reaction was stopped using 1M H₂SO₄, and the absorbance was read at 450 nm. Data were analyzed using Graphpad Prism software and IC₅₀ values were reported.
In the capture ELISA test, a mouse control antibody targeting a protein other than CD40 was used.

[6] = target: T1, human CD40-Fc protein (amino acid …); assay: competitive ELISA; coated human CD40-Fc, competitor biotin human CD40L-his
Description: Serially diluted the mouse anti-CD40 antibodies of the present invention or the controls (starting at 200 nM with a four-fold serial dilution) in 2.5% w/v non-fatty milk in PBST were prepared to the plates and incubated with the human CD40-Fc proteins at room temperature for 40 minutes. […] Plates were washed again. 100 μl/well of streptavidin conjugated HRP was added and incubated for 40 minutes at 37° C. Plates were washed again using wash buffer. Finally, TMB was added and the reaction was stopped using 1M H₂SO₄, and the absorbance was read at 450 nm. Data were analyzed using Graphpad Prism software and IC₅₀ values were reported.

[7] = target: T2, full length human CD40 (uniprot # …); assay: flow cytometry on 293T-CD40 cells, PE-labeled secondary antibody, MFI
Description: 2×10⁵ cells per well in 96 well-plates were incubated with the mouse anti-CD40 antibodies or the controls of various concentrations in FACS buffer for 40 minutes on ice. […] Following an incubation of 40 minutes at 4° C. in dark, cells were washed three times and resuspended in FACS buffer. Fluorescence was measured using a Becton Dickinson FACS Canto II-HTS equipment and plotted against antibody concentration.

[8] = target: T1, human CD40-Fc protein (amino acid …); assay: capture ELISA, biotin human CD40-Fc; mAb at 400 ng/mL
Description: as §1

[9] = target: T1, human CD40-Fc protein (amino acid …); assay: capture ELISA, biotin human CD40-Fc; mAb at 0.64 ng/mL
Description: as §1

[10] = target: T1, human CD40-Fc protein (amino acid …); assay: capture ELISA, biotin human CD40-Fc; mAb at 0 ng/mL (blank)
Description: as §1

[11] = target: T1, human CD40-Fc protein (amino acid …); assay: capture ELISA, biotin human CD40-Fc; mAb at 10000 ng/mL
Description: as §1

[12] = target: T1, human CD40-Fc protein (amino acid …); assay: competitive ELISA; biotin human CD40-Fc in solution, competitor coated BM2; remark: listed apart in the source
Description: as §2

Binder | EC50 [1] [µg/mL] | absorbance at 450 nm [2] [OD450] | absorbance at 450 nm [3] [OD450] | cell based functional assay (EC50, nM) [4] [nM] | IC50 [5] [nM] | IC50 [6] [nM] | EC50 (read off the curve) [7] [µg/mL] | absorbance at 450 nm [8] [OD450] | absorbance at 450 nm [9] [OD450] | absorbance at 450 nm [10] [OD450] | absorbance at 450 nm [11] [OD450] | IC50 [12] [nM]
mouse anti-CD40 monoclonal antibody C1C1 (antibody, V domains shown, those are used here for the chimeric antibody only; also called Mouse C1C1; mouse C1C1) VH: EVKLVESGGGLVKPGASLKLSCAASGFTFSNYGMSWVRQNSDKRLEWVASISSGGDDTYYPDNVKGRCTISRENAKNTLYLEMSSLKTEDTALYYCTRAGGKAMDYWGQGTSVTVST VL: DIVLTQSPATLSVIPGNSVSLSCRASQSIRDNLHWYQQKSHESPRLLINYASQSISGIPSRFSGSGSGTDFTLTINSVETEDFGIYFCQQFNSWPLTFGGGTKLELK | 0.000155 | 1.75 | 0.764 | 2.51 | 0.461 | 5.4 | ~0.3 | 1.69 | 0.142 | 0.124 | 1.81 | 0.461
chimeric antibody C1C1 (antibody, human IgG1, kappa, V domains shown, also called chC1C1; chimeric C1C1) VH: EVKLVESGGGLVKPGASLKLSCAASGFTFSNYGMSWVRQNSDKRLEWVASISSGGDDTYYPDNVKGRCTISRENAKNTLYLEMSSLKTEDTALYYCTRAGGKAMDYWGQGTSVTVST VL: DIVLTQSPATLSVIPGNSVSLSCRASQSIRDNLHWYQQKSHESPRLLINYASQSISGIPSRFSGSGSGTDFTLTINSVETEDFGIYFCQQFNSWPLTFGGGTKLELKR | 0.000384 | 1.83 | 0.329 | 3.28 | 0.13 | 4.83 | ~0.3 | 1.79 | 0.035 | 0.028 | 1.96 | 0.126
